assay: soluble on expression in E. coli; label from the status in PepcDB or PDB records

Q: For “MSLTERFVLRNVKRVNGEEVDIVIENNKIAQVTKAGAGEGGKVLDYSGTYVSSGWIDLHVHAFPEFDPYGDEVDEIGVKQGVTTIVDAGSCGADRIADLVKSREQAKTNLFAFLNISRIGLKRIDELSNMEWIDKEKVIEAVEKYKDVIVGLKARMSKSVVCDSGIEPLHIARDLSRETSLPIMVHIGSAPPRIEEVVPLLEKDDVITHYLNGKENNLFDEEGKPLPVLLDAVNRGVHLDVGHGNASFSFKVAEAAKRHGIAFNTISTDIYRKNRMHGPVYSMAHVLSKFLYLGYSLEEVIDAVTKHAAEWLKKPELGRIQEGDIANLTLFTVKDEKITLIDSEGDQRIAERRIDTKGVVINGSFIECEGHHHHHH”, which “soluble on expression in E. coli” value is on record?
A: soluble

Q: Which “soluble on expression in E. coli” value does the source give for “MSLNVLIIGAGAVGLCLAAKLSNVADVFAVTRERNAKIIRESGFKMTGIWGEGTFNFEASENVPERDFDYIIISSKGLATKSICEQFKDVINGKNVISMQNGVGNEEIILRYTDKVIGGTIITGFEWKGDAKVHVSVEGGPMTVGRFPNGTDKEVTDFVKLIKSSGIPVNETENIQGAIWSKTIYNCALNPLGAVMNVPYGELSNEHSWNIIKNIVSEIFEITSKKGVILPWKTSEEYLKYLKEFQLPNTAAHHSSMLQDISKGNITEIDFLNGAVVTIAKEFGIKTPYNKFITEQIKFLENLKSKKEGHHHHHH” here?
A: soluble

Q: Which “soluble on expression in E. coli” value does the source give for “MAHHHHHHMTYYTVEEITDRRINENDGAIEYAVKWEGVAGELTWEKRHQLTENCAETVQAVDQRCMDATDEELERWRDGKWKRGAKRAHDAPPLVGTTTERRKRSRSVSPAAGEDLEQVEVLNGLLLRPPCGAQNAEEEGTILMLGEVVLAEEASAILNGTGSYRKKCRTATVSTAVAFHTAPALDIEKRWRGIHGQSLLHSIEVAQSITPFHPHFRLHGCDPATRCAMALEVERSSHLRIISIAPPLMTHSGAVFGLPVALDPLVGEKDVEQLRQSVQLESPLFGSAAQELVKPHVEQMVVRYIIPEVTPATDDDTATPTTELFPVHGRIASMPLSVFRVVFPQLLIDYLLTNSVVLR” here?
A: not soluble

Q: Which “soluble on expression in E. coli” value does the source give for “METRLLVLKYDILNREAICLNRETHELLHANLVESVQPQIGQFLAVENLKIVQIDGVCFISPECGTIVIEPPAPEDCVILPKEKTDVVMFKSWIGFSSDPSHLTYDRNIGYADWYGPVNCSQFKAKNTKVAFFKYLIAVNDLDYKNTGECLMKAVQLVGVIDNRDAAEVRLKMMEFERKRIADIQRTTKQTRLIETVAYPILPSAHQPSSNHSYTGRSSCDSLRPQPVPAARKLSEQPQTVQNQAPYREQINQQRSVTNSIYGEFSGVGRTDQPLETANSRGSTEYYSGRSSSSSDQVIRNEPQLPNPAPILPESMGMVTYENGIMQIVYLRSVQKAAIHYWSKHQITTSLGSVFNCSFKPIPVQATTHWAPFEITAINNVNNEKNEVKTVGKECFALFKVDLSRPEGKFSKWTTIGGNPIFSCEIVGYVMLAHSVLGPQQNQLSILNVAQNYYNRKVAENICCFCRFVRRQVPRMMVDSHWISEDEEVEVFIWELVEIVGASELYRKRQEQLEIGNLGDTADNVKRHNDDIEMQKKRAQQEHFAQQQRPAGSSNSYQTENAQQHSMSNNMQYYHSQAPPVSSRSSISLGETAEFKNKLERTNDMMESLCDAIKKFLDNRQLKETLRGYNPRRLQALEEKLKECSEHLENN” here?
A: not soluble

Q: Which “soluble on expression in E. coli” value does the source give for “MGSDKIHHHHHHMATVDLSQLPQPQIIEVLDFEVILREVKAVMIAAFPANQQASVTAALELESEPLNQIAQVIAYRELMLRQRINEGAASCMLSHAVSSDLDNLAANLNTERLVITAETETADAVMENDAAFRLRAQSAFEGLSVAGPTAAYEYFAKSASGKVKDAKAISPSPAVVVVSVISSEANGTASSELLSTVETALSAEDKRPVADRLTVQSAEIVDFAINAVLYLYPGPESEPIHTAAQKALQSWIGEQGMIGRDVARSSIMAALHVQGVQRVSVVEPPHDIVISDTQAAYCTGFTVTTGGIDG” here?
A: not soluble

Q: For “MDQFISAFLKSASENNFQQLAKEFLPQYSALISKAGGMLSPETLTGIHKALQEGNLSDVMSQIQKAISAAENAILEVAVIGQSGTGKSSFINALRGLGHEADESADVGTVETTMCKTPYQHPKYPKVIFWDLPGTGTPNFHTDTYLDQVGFANYDFFIIISSSRFSLNDALLAQKIKDAGKKFYFVRTKVDSDLYNEQKAKPIAFKKEKVLQQIRDYCVTNLIKTGVTEPRIFLISNLDLGTFDFPELEETLLKELPGHKRHMFALLLPNISDASIELKKHFLREKIWLEALKSAAVSFIPFMTFFKGFDLPEQEQCLKDYRSYFGLDDQSIKEIAEKLGAPLADIKGELKCLDFWSLVKDNSIIAQATSAAEAFCAVKGGPESSAFQALKVYYRRTQFLNIVVDDAKHLLRKIETVNVA”, which “soluble on expression in E. coli” value is on record?
A: soluble

Q: For “MGSDKIHHHHHHMRFLAYFGHLNIDVLISVDSIPREGSVNVKDLRPRFGGTAGNFAIVAQKFRIPFDLYSAVGMKTHREYLAMIESMGINTGHVEKFEDESGPICYIATDGKKQVSFMHQGAMEKWKPQLADEYEYVHFSTGPNYLDMAKSIRSKIIFDPSQEIHKYSKDELKKFHEISYMSIFNDHEYRVFREMTGLSSPKVTTIVTNGERGSSLFMDGKKYDFPAIPSSGDTVGAGDSFRAGLYLALYNRRSIEKGMIYGTIIAHHVIDDGIENFSLNMEDLERETENYRRMFTKRS”, which “soluble on expression in E. coli” value is on record?
A: not soluble

Q: For “MDYLSFIAVAAHEFVHTWNVKQYRPKGIVPYDYQQENYSNLLWLVEGSTSYLQYQLLLRGNLMTTDEFFTALAKRITAHAHKPGKESQSVAQASFDAWISEGGDYGNNHSVNILEHHHHHH”, which “soluble on expression in E. coli” value is on record?
A: soluble

Q: With “MSENENSQEKNELLDALNSVEEVNVGDVVKGEVLAIDDDKQVIVGIQGTGVEGVVPLKELSTQRVDDVNEAAKVGDVLDLVVISRIGSDKENGSYLLSHRRLEARKVWDDVEKEYEAGHTIKAPVTQVVKGGLVVDAGVRGFIPASMIDDHYVEDLNAYKGQELELKIIEIEPSENRLILSHRAVVEKQREAQREEALKTLQAGDVVEGKVARLTNFGAFVDLGGIDGLVHVSEISYERVEKPADVLKVGQEVTVKILSVDADRERVSLSIKATLPEPWDGIEEKAPQGAVLDGKVKRLTSFGAFVEVFPGVEGLVHISQISHQHIATPNDVLKVGQEIKVKVLDVRPDEKRLALSIKALEEKPQTADDDNESQPERRSNNNRRRNNNRDNRTASERSTANAPEESTGFTLGDLIGDELKNAESNNDENLEHHHHHH” as the sequence, how does the “soluble on expression in E. coli” value read?
A: not soluble

Q: For “MEEWKTSFREIYGRSPTAGDISVAPNHIKAILQSEKKENDEKIEEKQAKRGVKRKNFEMKMMEGEQFSPIKKRVNLNQLGSENDKNPIPLRSSPRKKMIAIEVLPEKSMVSPKKKPVGSVPFEFDDFSPVKSYSASTSKSAVKSTLTPIKSPTKRAYQRPLRDLKMLLLPTPEKGQEVEGPVEEFDDETNEDVAKARSYNPAARKLGGSSKSDQNFQKINLRKKQFVRGKVTAEQKRKLKRKQMFKKKY”, which “soluble on expression in E. coli” value is on record?
A: soluble

Q: For “GMSDHVCQEGCRHHSHGEDSPEIQQEFQEGRRDFMRDFAVGGVLASAASLGISSSAFGQTMPKTGLTSGHATHYYIPASDKTVSWGFFSKSLKPVVELESGDFATIETLTHHSNDDASLMVKGDPGAESVFYWDSKRKNVDRRGMGPMDHKLGAGGGMGVHILTGPVAIKGAEPGDVLEVRIVDVALRPSANPEFKGKTFGSNVAANWGFHYNELIEEPKKREVVTIYELDATGERNWARAFYNYRWTPQKDPFGVVHPIVDYPGVPVDHSTISKNYNVLKNIRVPVRPHFGTMGLAPKEADLVNSVPPSHFGGNIDNWRIGKGATMYYPVSVAGGLFSVGDPHASQGDSEMCGTAIECSLTGTFQFILHKKADLPGTPLADLQYPLLETQDEWVLHGFSYANYLAELGPDAQNSIFSKSSLDLALKDAFRKMRHFLMQTQNLTEDEAVSLMSIGVDFGITQVVDGNWGVHAVVKKGIFPGRDV”, which “soluble on expression in E. coli” value is on record?
A: soluble

Q: Which “soluble on expression in E. coli” value does the source give for “QSIVVDMREFRSELPSLIHRRGIDIEPVTLEVGDYILTPEMCVERKSISDLIGSLNNGRLYSQCISMSRYYKRPVLLIEFD” here?
A: not soluble

Q: Which “soluble on expression in E. coli” value does the source give for “SADEEDSLSQFDISKEETDKLVSEVIRFILFKFHQNSGTPIKREDLTQIVTKNYRQRNLATHVINEAKKKLSNVFGYDLKELQRARSSSTGQSRLPQSQSSVDSKSYVLVSELPLEVFKKHVVDETTSPVTGFTFVVLAIVQLAGGKIPEGMLLLGLLRRSFLWFRCNVLCKVVEWKSKVHYRDLFKNLKL” here?
A: soluble

Q: With “GFVKEPFFTRLIDLESPFEEEFDKNVRYEIKRAQKESLLFSWGEGVPRFVKFFNAFAQSKGLSLLNEAELSYMGEHLRLTEIRANGEPLVMHSYLLDHSIKRVRLLHSASLFRLSQEKDFRALVGRANRLLHFLDMERFKEEGFKIYDFGGVSHSQDPALLGINRFKEGFGGRE” as the sequence, how does the “soluble on expression in E. coli” value read?
A: not soluble
